Test results as given in the supplement of paper PMC9233669.
This sample holds only a part of the variants without activity.

Tests used:
biotinyl-Val-oxazolone = test: self-aminoacylation, catalytic enhancement (BVO) (fold over background); higher = more active; k-Seq, kA / k0A0; sequences stand for … in GGGAAUGGAUCCACAUCUACGAAUUC…UUCACUGCAGACUUGACGAAGCUG
Procedure, shortened: (§1)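 Mutagenized RNA pools (0.43 μM; 21-nt variable region) were treated with 2–1250 μM of each biotinyl-aminoacyl-oxazolone. Conditions were 50 μL HEPES/NaCl/KCl/MgCl2/CaCl2 buffer, 5% acetonitrile, pH 6.9–7.0, room temperature, 90 minutes. Catalytic enhancement, the median kA relative to the uncatalyzed rate, was derived from streptavidin capture, qPCR and Illumina sequencing.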

biotinyl-Leu-oxazolone = test: self-aminoacylation, catalytic enhancement (BLO) (fold over background); higher = more active; k-Seq, kA / k0A0; sequences stand for … in GGGAAUGGAUCCACAUCUACGAAUUC…UUCACUGCAGACUUGACGAAGCUG
Procedure, shortened: as §1

biotinyl-Phe-oxazolone = test: self-aminoacylation, catalytic enhancement (BFO) (fold over background); higher = more active; k-Seq, kA / k0A0; sequences stand for … in GGGAAUGGAUCCACAUCUACGAAUUC…UUCACUGCAGACUUGACGAAGCUG
Procedure, shortened: as §1

biotinyl-Ile-oxazolone = test: self-aminoacylation, catalytic enhancement (BIO) (fold over background); higher = more active; k-Seq, kA / k0A0; sequences stand for … in GGGAAUGGAUCCACAUCUACGAAUUC…UUCACUGCAGACUUGACGAAGCUG
Procedure, shortened: as §1

biotinyl-Trp-oxazolone = test: self-aminoacylation, catalytic enhancement (BWO) (fold over background); higher = more active; k-Seq, kA / k0A0; sequences stand for … in GGGAAUGGAUCCACAUCUACGAAUUC…UUCACUGCAGACUUGACGAAGCUG
Procedure, shortened: as §1

biotinyl-Met-oxazolone = test: self-aminoacylation, catalytic enhancement (BMO) (fold over background); higher = more active; k-Seq, kA / k0A0; sequences stand for … in GGGAAUGGAUCCACAUCUACGAAUUC…UUCACUGCAGACUUGACGAAGCUG
Procedure, shortened: as §1

Sequence	self-aminoacylation (biotinyl-Val-oxazolone)	self-aminoacylation (biotinyl-Leu-oxazolone)	self-aminoacylation (biotinyl-Phe-oxazolone)	self-aminoacylation (biotinyl-Ile-oxazolone)	self-aminoacylation (biotinyl-Trp-oxazolone)	self-aminoacylation (biotinyl-Met-oxazolone)
CCACACUGCAAGCAAUCGGUA [Fam1B.1 aminoacylation ribozyme variant]	2.25	2.11	0.894	2.19	2.33	2.16
UUUCACAUAGGUCAUCGGGUG [Fam2.2 aminoacylation ribozyme variant]	5.12	8.51	56.6	5.3	7.61	7.92
CUACUUAAAACAAUCGGGCUG [Fam1A.1 aminoacylation ribozyme variant]	1.02	0.999	0.623	1.31	0.924	1.05
AUAACGCUGGUCAUCGAGUGA [Fam2.1 aminoacylation ribozyme variant]	2.76	4.06	15	3.06	5.24	4.6
AUUACCCUGGUCAGCGACUGA [Fam2.1 aminoacylation ribozyme variant]	1.31	1.05	1.03	1.12	1.94	1.3
CGACUACAAACAAUCGGUCUG [Fam1A.1 aminoacylation ribozyme variant]	1.15	0.926	2.44	1.09	1.31	1.22
CUACUUCAAACAAUCGGUAUG [Fam1A.1 aminoacylation ribozyme variant]	0.799	0.995	21.5	0.788	10.1	0.789
CUACUUCAAAAAAUCGGUCAG [Fam1A.1 aminoacylation ribozyme variant]	0.613	0.653	3.51	0.845	1.82	0.722
CGACACUUCAAGGAAUCGGUC [Fam1B.1 aminoacylation ribozyme variant]	1.73	1.89	3.19	2.39	1.84	1.42
AAGUUGGCAAAUAGUCGCAAG [Fam3.1 aminoacylation ribozyme variant]	1.41	1.32	2.07	1.57	2.03	1.04
AUUACCCUGGUCAUCGGGUAA [Fam2.1 aminoacylation ribozyme variant]	16	38.2	208	11.4	42.4	35.6
ACGUUUGCUAAGAGUCGCAAG [Fam3.1 aminoacylation ribozyme variant]	1.44	1.65	2.95	1.35	1.44	1.12
AUUUACCUAGGUCAUCGAGUG [Fam2.2 aminoacylation ribozyme variant]	5.4	12.7	18.5	6.62	5.73	9.76
AAGUUUGCUUAUAGUCGCGAG [Fam3.1 aminoacylation ribozyme variant]	1.03	0.821	0.935	1.01	1.53	1.07
AUUCCCCUAGGUGAUCGGGUG [Fam2.2 aminoacylation ribozyme variant]	7.89	11.8	47.7	7.9	10.8	10.9
CCGCACUUCAGGCAAUCGGUC [Fam1B.1 aminoacylation ribozyme variant]	2.87	2.33	6.33	1.76	2.88	1.98
AUUCACCUAUGUCUUCGGGUG [Fam2.2 aminoacylation ribozyme variant]	2.02	2.67	14.7	2.11	2.35	2.42
AUUACUCUGGUUAUCGAGUGA [Fam2.1 aminoacylation ribozyme variant]	4.2	8.76	51.3	4.17	10.5	8.17
AUUCACCUAAGUCAGCGGGUG [Fam2.2 aminoacylation ribozyme variant]	2.88	5.01	25	3.01	2.8	3.78
UAGUUUGCUAAAAGUCGCAAG [Fam3.1 aminoacylation ribozyme variant]	1.6	1.57	3.92	1.53	3.43	1.93
AGUACCCUGUUCAUCGAGUGA [Fam2.1 aminoacylation ribozyme variant]	2.45	4.46	17.4	2.36	4.52	4.14
AUUCACCUAGGUCAUCGGGGG [Fam2.2 aminoacylation ribozyme variant]	4.28	9.91	32.6	4.62	5.49	6.96

Sequence	self-aminoacylation (biotinyl-Val-oxazolone)	self-aminoacylation (biotinyl-Leu-oxazolone)	self-aminoacylation (biotinyl-Phe-oxazolone)	self-aminoacylation (biotinyl-Ile-oxazolone)	self-aminoacylation (biotinyl-Trp-oxazolone)	self-aminoacylation (biotinyl-Met-oxazolone)
AUUCGACUAGGUCAUCGGGUG [Fam2.2 aminoacylation ribozyme variant]	3.95	8.63	47.3	4.46	6.57	7.05
CUACAUCAAACAAUCGGGCUG [Fam1A.1 aminoacylation ribozyme variant]	1.3	0.965	0.764	1.36	1.29	1.44
CCACACUUCCAUCAAUCGGUC [Fam1B.1 aminoacylation ribozyme variant]	0.732	0.593	0.715	0.683	0.586	0.561
AUACACUUCAAGCAAUCGGUC [Fam1B.1 aminoacylation ribozyme variant]	0.96	0.979	9.74	1.05	5.86	0.804
AAGUUUGGUAAUAGUCGCAAA [Fam3.1 aminoacylation ribozyme variant]	1.44	1.44	1.72	1.88	1.75	1.66
AAGUUUGAUAAUAGUCGCAAA [Fam3.1 aminoacylation ribozyme variant]	0.975	0.997	1.22	1.18	1.04	1.08
AUUACCCUGGUCUUCAAGUGA [Fam2.1 aminoacylation ribozyme variant]	2.67	4.28	23.8	2.76	5.67	4.91
AUUCACCUAGGUCAUCAAGUG [Fam2.2 aminoacylation ribozyme variant]	0.711	0.756	1.21	0.747	0.347	0.662
CUCCGUCAAACAAUCGGUCUG [Fam1A.1 aminoacylation ribozyme variant]	0.973	0.889	1.97	1.07	1.29	1.02
AUUCACCUAGGUCAUGGGGCG [Fam2.2 aminoacylation ribozyme variant]	2.27	3.14	1.37	2.18	2.15	2.3
CUUCACCUAGGUCCUCGGGUG [Fam2.2 aminoacylation ribozyme variant]	4.26	7.45	34.1	3.4	6.69	6.74
AAGUUUAUUAAUAGUCGCAAG [Fam3.1 aminoacylation ribozyme variant]	1.82	1.53	2.49	1.74	1.94	1.95
AUUACCCUGGUAAUCGAGAGA [Fam2.1 aminoacylation ribozyme variant]	0.78	0.723	0.58	1.02	0.573	0.722
AUUCAGCUAGGUCAUCGCGUG [Fam2.2 aminoacylation ribozyme variant]	5.79	6.83	54.8	4.48	5.71	6.28
AUUCACCUAGGGUAUCGGGUG [Fam2.2 aminoacylation ribozyme variant]	3.99	8.63	50.9	3.84	6.31	6.75
AUUACCCUGUUCAUCGGGUGA [Fam2.1 aminoacylation ribozyme variant]	5.19	9.74	64.2	4.92	12	9.44
AAUUUUGCUAACAGUCGCAAG [Fam3.1 aminoacylation ribozyme variant]	1.58	1.87	3.07	1.88	1.88	1.28
GUUAGCCUGGUCAUCGAGUGA [Fam2.1 aminoacylation ribozyme variant]	5.04	7.66	51.9	5.11	8.56	6.67
CUACUGCAACCAAUCGGUCUG [Fam1A.1 aminoacylation ribozyme variant]	0.567	0.495	0.691	0.53	0.608	0.585
AUUACCCUCGUCACCGAGUGA [Fam2.1 aminoacylation ribozyme variant]	2.74	4.63	21.2	2.33	5.5	4.34
AUUAACCUGGGCAUCGAGUGA [Fam2.1 aminoacylation ribozyme variant]	2.6	5.72	20.5	2.63	5.8	4.66
